Changes are numbered by the printed parent chain. Numbers in names are those of the source. Each block holds one binder with its values, some of them ahead of it.
How the values were obtained:
[1] = molecular target: T1, human FAM46C (residues 16-358), NTase domain (human, UniProt Q5VWP2 16-358); assay: crystal structure
T1 sequence (looked up): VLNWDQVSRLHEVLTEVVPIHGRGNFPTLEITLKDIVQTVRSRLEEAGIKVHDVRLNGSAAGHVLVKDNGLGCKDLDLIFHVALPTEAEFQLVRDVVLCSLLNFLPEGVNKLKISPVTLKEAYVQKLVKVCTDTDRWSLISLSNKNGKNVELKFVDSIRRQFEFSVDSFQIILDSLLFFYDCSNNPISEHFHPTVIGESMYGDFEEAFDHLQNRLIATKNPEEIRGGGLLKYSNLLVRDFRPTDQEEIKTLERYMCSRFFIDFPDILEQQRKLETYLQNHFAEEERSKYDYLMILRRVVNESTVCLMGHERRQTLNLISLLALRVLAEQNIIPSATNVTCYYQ

[2] = molecular target: T2, FAM46C E166Q/F193D/F206D (residues 16-350) (human, UniProt Q5VWP2 16-350, E166Q | F193D | F206D); assay: crystal structure
T2 sequence (looked up): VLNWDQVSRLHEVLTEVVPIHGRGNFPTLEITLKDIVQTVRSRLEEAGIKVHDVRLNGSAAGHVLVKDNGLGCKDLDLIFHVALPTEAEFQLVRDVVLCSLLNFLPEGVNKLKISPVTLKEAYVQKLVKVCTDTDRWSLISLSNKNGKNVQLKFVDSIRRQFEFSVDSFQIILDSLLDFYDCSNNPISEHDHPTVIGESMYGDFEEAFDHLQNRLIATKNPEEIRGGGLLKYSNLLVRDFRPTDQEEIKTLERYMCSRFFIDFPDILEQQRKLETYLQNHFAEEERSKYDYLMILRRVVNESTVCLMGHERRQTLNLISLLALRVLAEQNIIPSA

[3] = molecular target: T3, GST-tagged FAM46C (residues 16-358) (human, UniProt Q5VWP2 16-358); assay: pull-down
T3 sequence (looked up): T1 sequence (looked up)

[4] = molecular target: T4, GST-tagged FAM46D (residues 7-340) (human, UniProt Q8NEK8 7-340); assay: pull-down
T4 sequence (looked up): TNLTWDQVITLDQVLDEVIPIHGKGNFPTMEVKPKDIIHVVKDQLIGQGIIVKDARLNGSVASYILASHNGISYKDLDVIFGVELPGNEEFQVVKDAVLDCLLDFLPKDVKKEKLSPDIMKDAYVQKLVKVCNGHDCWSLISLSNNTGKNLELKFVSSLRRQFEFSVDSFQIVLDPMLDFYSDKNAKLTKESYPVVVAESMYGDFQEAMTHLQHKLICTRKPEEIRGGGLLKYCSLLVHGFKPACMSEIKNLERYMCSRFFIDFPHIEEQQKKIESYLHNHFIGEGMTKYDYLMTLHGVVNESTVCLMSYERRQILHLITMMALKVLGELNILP

binding result [1]: binds
binding result [2]: binds
binding result [3]: binds
binding result [4]: binds
B1: CPB1-2 of human PLK4 (residues 580-810) (domain or fragment, UniProt O00444 580-810, looked up)
chain: WGYQNRTLRSITSPLVAHRLKPIRQKTKKAVVSILDSEEVCVELVKEYASQEYVKEVLQISSDGNTITIYYPNGGRGFPLADRPPSPTDNISRYSFDNLPEKYWRKYQYASRFVQLVRSKSPKITYFTRYAKCILMENSPGADFEVWFYDGVKIHKTEDFIQVIEKTGKSYTLKSESEVNSLKEEIKMYMDHANEGHRICLALESIISEEERKTRSAPFFPIIIGRKPGST

binding result [3]: binds
B2: CPB1-2 of human PLK4 (residues 580-810) N669R (domain or fragment, UniProt O00444 580-810, looked up)
chain: B1 chain with N90R

Source: paper PMC7415566 (Structure (London, England : 1993), 2020)
